{
  "source": "paper PMC7295619",
  "molecular_target": "Porcine circovirus type 3 (PCV3) capsid protein (porcine circovirus type 3)",
  "test": "cryo-EM structure; in vitro assembled full-length PCV3-VLP, 1 mg/ml, Titan Krios 300 kV, EMAN2 reconstruction with icosahedral symmetry applied, ~8.5 Å",
  "data": [
    {"substance": "Porcine circovirus type 3 (PCV3) capsid protein (natural protein)", "values": [
      {"measurement": "stoichiometry N", "result": 60}
    ]}
  ]
}
